Results published in paper PMC4019986, “Structural and biochemical characterization of the KLHL3–WNK kinase interaction important in blood pressure regulation” (Biochemical Journal, 2014).
Values joined by “and” are separate entries in the source; they are usually repeats but may differ in a detail not shown here. Identical values can stand only once. Like-named read-outs stand apart in the source and are kept apart here. Ends that are not written are not given here. Peptide text beside a SMILES is read from it. * marks the point of attachment. X1 = N[C@H]1CS[As]2SC[C@H](NC1=O)C(=O)N1CCC[C@H]1C(=O)NCC(=O)N[C@H]1CS[As](SC[C@@H](C(=O)*)NC1=O)c1c(O)ccc3c1Oc1c(ccc(O)c12)C31OC(=O)c2ccccc21

T1: GST–KLHL3^290–587 (Homo sapiens, UniProt Q9UH77)
T1 construct: the isolated C-terminal Kelch domain (residues 290–587); made in house; host or cells: E. coli BL21
T1 sequence (Q9UH77 290-587): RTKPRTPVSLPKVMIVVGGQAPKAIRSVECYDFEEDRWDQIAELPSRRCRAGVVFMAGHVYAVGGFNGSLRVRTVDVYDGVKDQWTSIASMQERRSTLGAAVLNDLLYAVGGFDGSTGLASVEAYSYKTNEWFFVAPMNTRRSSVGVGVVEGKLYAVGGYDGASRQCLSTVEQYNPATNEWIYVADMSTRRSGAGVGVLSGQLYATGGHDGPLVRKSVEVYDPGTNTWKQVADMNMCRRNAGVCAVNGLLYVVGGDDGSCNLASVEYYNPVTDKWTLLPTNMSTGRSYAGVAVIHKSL

T2: human KLHL2 Kelch domain (residues 294–593) (human, UniProt O95198 294-593)
T2 construct: KLHL2, human, IMAGE clone 4791972, Kelch domain, residues 294-593; Vector pNIC28-Bsa4 (GenBank EF198106); The results speak of unmodelled residues 292–305, which lie partly before the stated limit; also called KLHL2 (crystallization construct); Mayven; source: E. coli BL21(DE3)-R3-pRARE, purified (Ni-Sepharose, rTEV cleavage, HiTrap SP, Superdex 200); not shown: His6, N-terminal, cleaved
T2 sequence (looked up): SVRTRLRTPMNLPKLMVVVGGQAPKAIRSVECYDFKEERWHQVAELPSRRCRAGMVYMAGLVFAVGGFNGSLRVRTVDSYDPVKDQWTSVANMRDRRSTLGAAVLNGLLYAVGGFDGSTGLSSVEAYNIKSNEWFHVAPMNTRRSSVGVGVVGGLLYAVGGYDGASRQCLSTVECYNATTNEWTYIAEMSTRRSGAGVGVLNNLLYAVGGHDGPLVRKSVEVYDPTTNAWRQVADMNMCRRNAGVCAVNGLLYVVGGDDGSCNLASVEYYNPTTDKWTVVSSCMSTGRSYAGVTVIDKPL

T3: human KLHL3 Kelch domain (residues 298–587) (human, UniProt Q9UH77-1 298-587)
T3 construct: KLHL3, human, NM_017415.2, Kelch domain, residues 298-587; Vector pNIC28-Bsa4 (GenBank EF198106); The results speak of unmodelled residues 296–299, which lie partly before the stated limit; also called KLHL3 (crystallization construct); source: E. coli BL21(DE3)-R3-pRARE, purified (Ni-Sepharose, rTEV cleavage, HiTrap Q, Superdex 200); not shown: His6, N-terminal, cleaved
T3 sequence (looked up): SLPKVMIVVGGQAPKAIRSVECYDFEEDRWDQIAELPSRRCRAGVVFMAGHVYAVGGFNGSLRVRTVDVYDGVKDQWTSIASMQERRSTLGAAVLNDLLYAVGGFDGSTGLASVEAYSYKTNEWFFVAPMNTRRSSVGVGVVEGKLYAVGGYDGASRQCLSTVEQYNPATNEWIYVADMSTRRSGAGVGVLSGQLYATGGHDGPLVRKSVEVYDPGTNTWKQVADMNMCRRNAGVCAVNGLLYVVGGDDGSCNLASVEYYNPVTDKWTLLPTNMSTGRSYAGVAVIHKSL

T4: GST–KLHL3^290–587 (human, UniProt Q9UH77-1 290-587)
T4 construct: KLHL3, human, NM_017415.2, C-terminal Kelch domain, residues 290-587; pGEX6P-1, PreScission site between GST and KLHL3; eluted with glutathione as the GST fusion; also called isolated KLHL3 Kelch domain; GST-KLHL3 290-587 wild-type; source: E. coli BL21, purified (glutathione–Sepharose); not shown: GST, N-terminal, kept
T4 sequence (looked up): T1 sequence (Q9UH77 290-587)

B1: 11-residue WNK4 peptide (EPEEPEADQHQ) used for crystallization (peptide)
peptide: EPEEPEADQHQ
notes: WNK4 acidic degron, residues 557-567; the sentence 'All peptides contained an N-terminal linker' stands in the fluorescence polarization methods; also called WNK4 11-mer peptide; 11-residue WNK4 degron motif; source: synthetic peptide (GL Biochem)
B2: NRF2 degron peptide (NRF2 WT 74–84) (peptide)
peptide: CCPGCCGGGGLQLDEETGEFL
modifications: cysteine pairing not given here; also: Lumio Green fluorophore on N-terminal linker CCPGCCGGGG
notes: nuclear factor-erythroid 2-related factor 2 (NRF2), degron motif, residues 74-84; also called NRF2 degron motif; source: synthetic peptide (GL Biochem)
B3: WNK3 degron peptide (WNK3 WT 537–547) (peptide)
peptide: ECEETEVDQHV
modifications: not fully specified (N-terminus); also: Lumio Green fluorophore on N-terminal linker CCPGCCGGGG
notes: also called WNK3 motif; source: synthetic peptide (GL Biochem)
B4: WNK4 WT 555–567 peptide (peptide)
peptide: PPEPEEPEADQHQ
modifications: not fully specified (N-terminus); also: Lumio Green fluorophore on N-terminal linker CCPGCCGGGG
notes: WNK4 acidic degron, residues 555-567; source: synthetic peptide (GL Biochem)
B5: WNK4 E562K 549–567 peptide (peptide)
peptide: GPPSVFPPEPEEPKADQHQ
modifications: not fully specified (N-terminus); also: Lumio Green fluorophore on N-terminal linker CCPGCCGGGG
notes: source: synthetic peptide (GL Biochem)
B6: WNK4 WT 554–566 peptide (peptide)
peptide: FPPEPEEPEADQH
modifications: not fully specified (N-terminus); also: Lumio Green fluorophore on N-terminal linker CCPGCCGGGG
notes: WNK4 acidic degron, residues 554-566; source: synthetic peptide (GL Biochem)
B7: WNK4 WT 556–567 peptide (peptide)
peptide: PEPEEPEADQHQ
modifications: not fully specified (N-terminus); also: Lumio Green fluorophore on N-terminal linker CCPGCCGGGG
notes: WNK4 acidic degron, residues 556-567; source: synthetic peptide (GL Biochem)
B8: WNK4 Q565E 549–567 peptide (peptide)
peptide: GPPSVFPPEPEEPEADEHQ
modifications: not fully specified (N-terminus); also: Lumio Green fluorophore on N-terminal linker CCPGCCGGGG
notes: as for B5
B9: WNK4 WT 554–564 peptide (peptide)
peptide: FPPEPEEPEAD
modifications: not fully specified (N-terminus); also: Lumio Green fluorophore on N-terminal linker CCPGCCGGGG
notes: WNK4 acidic degron, residues 554-564; source: synthetic peptide (GL Biochem)
B10: WNK4 D564A 549–567 peptide (peptide)
peptide: GPPSVFPPEPEEPEAAQHQ
modifications: not fully specified (N-terminus); also: Lumio Green fluorophore on N-terminal linker CCPGCCGGGG
notes: as for B5
B11: core 11-residue WNK4 peptide (WNK4 WT 557–567), Lumio-Green-labelled (peptide)
peptide: EPEEPEADQHQ
modifications: not fully specified (N-terminus); also: Lumio Green fluorophore on N-terminal linker CCPGCCGGGG
notes: WNK4 acidic degron, residues 557-567; also called WNK1/4 degron; 11-residue WNK4 (557–567) degron peptide; source: synthetic peptide (GL Biochem)
B12: WNK4 WT 554–567 peptide (peptide)
peptide: FPPEPEEPEADQHQ
modifications: not fully specified (N-terminus); also: Lumio Green fluorophore on N-terminal linker CCPGCCGGGG
notes: WNK4 acidic degron, residues 554-567; source: synthetic peptide (GL Biochem)

Experiments:
GST–KLHL3^290–587 [1] = target: T1, GST–KLHL3^290–587; experiment: Fluorescence polarization binding of Lumio-Green-labelled degron peptides to the KLHL3 Kelch domain
[2] = target: core 11-residue WNK4 peptide (WNK4 WT 557–567), Lumio-Green-labelled; experiment: fluorescence polarisation; Kelch protein titrated against 10 nM Lumio-Green-labelled peptide; 25°C; 50 mM Tris/HCl pH 7.5, 150 mM NaCl, 2 mM DTT; one-site specific binding with Hill slope; duplicates, at least 12 points per curve
[3] = target: T2, human KLHL2 Kelch domain (residues …); experiment: crystal structure; KLHL2 Kelch domain (9 mg/ml) with 2 mM WNK4 11-mer peptide; sitting drop, 20°C, 0.1 M Hepes pH 7.2, 2.5 M ammonium sulfate, 2% PEG 400; conditions: both partners purified
[4] = target: T3, human KLHL3 Kelch domain (residues …); experiment: crystal structure; KLHL3 Kelch domain (9 mg/ml) with 2 mM WNK4 11-mer peptide; sitting drop, 0.1 M acetate pH 4.3, 0.2 M ammonium sulfate, 25–35% PEG 4000; conditions: both partners purified
GST–KLHL3^290–587 [5] = target: T4, GST–KLHL3^290–587; experiment: fluorescence polarisation; Kelch protein titrated against 10 nM Lumio-Green-labelled peptide; 25°C; 50 mM Tris/HCl pH 7.5, 150 mM NaCl, 2 mM DTT; one-site specific binding with Hill slope; duplicates, at least 12 points per curve; conditions: both partners purified
[6] = target: T5, KEAP1 full-length protein (residues 1–624) (UniProt Q14145 1-624); experiment: as above; conditions: both partners purified
T5 construct: KEAP1, NM_203500.1, amplified from EST IMAGE 3163902, residues 1-624; NM_203500.1 is a human transcript as far as I recall; also called Kelch-like enoyl-CoA hydratase-associated protein 1; source: Sf21 cells, purified (ampicillin–Sepharose, TEV protease release, size-exclusion chromatography); not shown: DAC, N-terminal, cleaved

[7] = disease-causing mutation within the WNK4 degron peptide, Figure 1C

T5 sequence (Q14145 whole entry, the tested form may be a part): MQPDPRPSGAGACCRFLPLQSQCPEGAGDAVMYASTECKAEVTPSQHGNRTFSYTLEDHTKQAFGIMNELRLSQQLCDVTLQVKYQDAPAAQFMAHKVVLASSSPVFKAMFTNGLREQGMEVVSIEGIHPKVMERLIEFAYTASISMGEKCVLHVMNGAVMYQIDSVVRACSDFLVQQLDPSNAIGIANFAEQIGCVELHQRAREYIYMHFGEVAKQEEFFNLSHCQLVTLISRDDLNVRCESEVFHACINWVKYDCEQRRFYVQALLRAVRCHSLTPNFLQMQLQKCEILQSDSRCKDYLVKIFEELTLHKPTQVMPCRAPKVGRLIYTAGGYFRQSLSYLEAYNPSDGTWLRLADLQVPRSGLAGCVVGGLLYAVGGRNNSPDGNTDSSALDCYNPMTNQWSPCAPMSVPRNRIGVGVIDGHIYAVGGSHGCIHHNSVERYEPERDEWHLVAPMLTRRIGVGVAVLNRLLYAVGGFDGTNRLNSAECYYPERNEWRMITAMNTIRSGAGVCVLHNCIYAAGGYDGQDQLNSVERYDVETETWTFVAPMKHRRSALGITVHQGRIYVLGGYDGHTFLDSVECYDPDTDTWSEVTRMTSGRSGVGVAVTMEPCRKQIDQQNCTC

Molecule	Kd (GST–KLHL3^290–587 [5])	other results
WNK4 D564A 549–567: 19-residue WNK4 degron peptide with Gordon's syndrome mutation D564A, Lumio Green labelled (GPPSVFPPEPEEPEAAQHQ; not fully specified (N-terminus); also: Lumio Green fluorophore on N-terminal linker CCPGCCGGGG)	–	reduction in binding relative to wild-type WNK4 degron peptide (GST–KLHL3^290–587 [1]; [7]): 10 fold
CC(C)[C@H](NC(=O)[C@H](CO)NC(=O)[C@@H]1CCCN1C(=O)[C@@H]1CCCN1C(=O)CNC(=O)CNC(=O)CNC(=O)CNC(=O)CNC(=O)[C@@H]1CS[As]2SC[C@H](NC(=O)CNC(=O)[C@@H]3CCCN3C(=O)[C@@H]3CS[As](SC[C@H](N)C(=O)N3)c3c(O)ccc4c3Oc3c(ccc(O)c32)C42OC(=O)c3ccccc32)C(=O)N1)C(=O)N[C@@H](Cc1ccccc1)C(=O)N1CCC[C@H]1C(=O)N1CCC[C@H]1C(=O)N[C@@H](CCC(=O)O)C(=O)N1CCC[C@H]1C(=O)N[C@@H](CCC(=O)O)C(=O)N[C@@H](CCC(=O)O)C(=O)N1CCC[C@H]1C(=O)N[C@@H](CCC(=O)O)C(=O)N[C@@H](C)C(=O)N[C@@H](CC(=O)O)C(=O)N[C@@H](CCC(=O)O)C(=O)N[C@@H](Cc1cnc[nH]1)C(=O)N[C@@H](CCC(N)=O)C(=O)O (stereo partly shown) [WNK4 Q565E 549–567] (X1-GGGGGPPSVFPPEPEEPEADEHQ-OH; N-terminus and C-terminus assumed)	–	reduction in binding relative to wild-type WNK4 degron peptide (GST–KLHL3^290–587 [1]): 10 fold
WNK4 E562K 549–567: 19-residue WNK4 degron peptide with Gordon's syndrome mutation E562K, Lumio Green labelled (GPPSVFPPEPEEPKADQHQ; not fully specified (N-terminus); also: Lumio Green fluorophore on N-terminal linker CCPGCCGGGG)	–	binding to KLHL3 in words (GST–KLHL3^290–587 [1]; [7]): virtually abolished binding
GST–KLHL2^298–593 (from UniProt O95198 298-593) (domain or fragment)	–	Kd [2]: 260 nM
B1	–	binding result [3]: binds; binding result [4]: binds
B2	> 50000 nM	–
B3	840 nM	Kd [6]: > 50000 nM
B4	910 nM	–
B5	> 50000 nM	–
B6	7810 nM	–
B7	290 nM	–
B8	6210 nM	–
B9	> 50000 nM	–
B10	> 50000 nM	–
B11	690 nM and 350 nM and 510 nM	Kd [6]: > 50000 nM
B12	710 nM	–
